Test results: paper PMC4219657, “Structural and Mechanistic Basis of Zinc Regulation Across the E. coli Zur Regulon” (PLoS Biology, 2014)

Legend:
[1] = biological target: T1, Zur WT (Escherichia coli, UniProt P0AC51 1-171); experiment: EMSA; 50 uM ZnSO4; macroscopic Kd-app for two dimers; table footnote a not in material; EMSA: 10 mM Tris pH 8.0, 10 mM NaCl, 100 mM K-glutamate, 167 mM KCl, 1.5 mM MgCl2, 1 mM CaCl2, 50 uM ZnSO4, 1 mM DTT, 0.1 ug/ml BSA, 2 ug/ml salmon sperm DNA, DNA <=45 pM, 22 C, 30 min; conditions: protein: recombinant; chain copies: 4; label: 5'-Cy5 on strand 1; blunt
T1 sequence: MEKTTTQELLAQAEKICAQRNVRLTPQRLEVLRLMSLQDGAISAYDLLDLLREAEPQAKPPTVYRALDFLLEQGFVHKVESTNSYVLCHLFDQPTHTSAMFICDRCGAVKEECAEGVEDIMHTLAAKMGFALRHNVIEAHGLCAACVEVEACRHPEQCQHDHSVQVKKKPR

[2] = biological target: T1, Zur WT; experiment: EMSA; 50 uM ZnSO4; Kd1, first dimer; EMSA: 10 mM Tris pH 8.0, 10 mM NaCl, 100 mM K-glutamate, 167 mM KCl, 1.5 mM MgCl2, 1 mM CaCl2, 50 uM ZnSO4, 1 mM DTT, 0.1 ug/ml BSA, 2 ug/ml salmon sperm DNA, DNA <=45 pM, 22 C, 30 min; conditions: protein: recombinant; chain copies: 4; label: 5'-Cy5 on strand 1; blunt
[3] = biological target: T1, Zur WT; experiment: EMSA; 50 uM ZnSO4; macroscopic Kd-app for two dimers; EMSA: 10 mM Tris pH 8.0, 10 mM NaCl, 100 mM K-glutamate, 167 mM KCl, 1.5 mM MgCl2, 1 mM CaCl2, 50 uM ZnSO4, 1 mM DTT, 0.1 ug/ml BSA, 2 ug/ml salmon sperm DNA, DNA <=45 pM, 22 C, 30 min; conditions: protein: recombinant; chain copies: 4; label: 5'-Cy5 on strand 1; blunt
[4] = biological target: T1, Zur WT; experiment: X-ray crystallography; Zn2+ (2 per monomer), 2.50 A; EMSA: 10 mM Tris pH 8.0, 10 mM NaCl, 100 mM K-glutamate, 167 mM KCl, 1.5 mM MgCl2, 1 mM CaCl2, 50 uM ZnSO4, 1 mM DTT, 0.1 ug/ml BSA, 2 ug/ml salmon sperm DNA, DNA <=45 pM, 22 C, 30 min; conditions: protein: recombinant; chain copies: 4; 3' overhang 2 nt on both strands
[5] = biological target: T1, Zur WT; experiment: X-ray crystallography; Zn2+; Br-DNA, 3.5 A; EMSA: 10 mM Tris pH 8.0, 10 mM NaCl, 100 mM K-glutamate, 167 mM KCl, 1.5 mM MgCl2, 1 mM CaCl2, 50 uM ZnSO4, 1 mM DTT, 0.1 ug/ml BSA, 2 ug/ml salmon sperm DNA, DNA <=45 pM, 22 C, 30 min; conditions: protein: recombinant; chain copies: 4; 3' overhang 2 nt on both strands
[6] = biological target: the molecule itself; experiment: crystal structure; Zn-loaded Zur with the 31 bp znuABC operator duplex (31mer2bpOH); hanging drop, 1.5 M ammonium sulfate, 0.1 M citrate pH 5.5, 4°C; refined to 2.50 Å
[7] = biological target: the molecule itself; experiment: SEC; analytical gel filtration of WT Zur, C103S and C88S; elution volume of WT (10.9 ml) as reference; column and buffer not told
[8] = biological target: T2, Zur D49A (Escherichia coli, UniProt P0AC51 1-171, D49A); experiment: EMSA; 50 uM ZnSO4; Kd1, first dimer; EMSA: 10 mM Tris pH 8.0, 10 mM NaCl, 100 mM K-glutamate, 167 mM KCl, 1.5 mM MgCl2, 1 mM CaCl2, 50 uM ZnSO4, 1 mM DTT, 0.1 ug/ml BSA, 2 ug/ml salmon sperm DNA, DNA <=45 pM, 22 C, 30 min; conditions: protein: recombinant; chain copies: 2; label: 5'-Cy5 on strand 1; blunt
T2 sequence: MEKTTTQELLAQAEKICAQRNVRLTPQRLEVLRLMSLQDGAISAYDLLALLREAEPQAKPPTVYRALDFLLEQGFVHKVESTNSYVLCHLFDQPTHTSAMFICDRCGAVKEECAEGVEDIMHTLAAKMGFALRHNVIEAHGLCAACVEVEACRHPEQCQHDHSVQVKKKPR

[9] = biological target: T3, Zur R52A (Escherichia coli, UniProt P0AC51 1-171, R52A); experiment: as above; conditions: protein: recombinant; chain copies: 2; label: 5'-Cy5 on strand 1; blunt
T3 sequence: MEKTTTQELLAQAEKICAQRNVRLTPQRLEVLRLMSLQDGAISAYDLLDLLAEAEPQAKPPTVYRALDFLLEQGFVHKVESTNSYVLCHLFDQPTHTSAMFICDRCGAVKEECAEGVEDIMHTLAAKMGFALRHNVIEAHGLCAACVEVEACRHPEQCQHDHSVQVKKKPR

[10] = biological target: T1, Zur WT; experiment: EMSA; 50 uM ZnSO4; macroscopic Kd-app for two dimers, Hill ~2.1; EMSA: 10 mM Tris pH 8.0, 10 mM NaCl, 100 mM K-glutamate, 167 mM KCl, 1.5 mM MgCl2, 1 mM CaCl2, 50 uM ZnSO4, 1 mM DTT, 0.1 ug/ml BSA, 2 ug/ml salmon sperm DNA, DNA <=45 pM, 22 C, 30 min; conditions: protein: recombinant; chain copies: 4; label: 5'-Cy5 on strand 1; blunt

B1: PL31p 51 bp (dsDNA)
DNA 1: CCATCATTTTTACCTGTTATGTTATAACATAACCATAAAGATACATGCTGG
DNA 2: CCAGCATGTATCTTTATGGTTATGTTATAACATAACAGGTAAAAATGATGG
For B1, which Kd [1] is on record?
Its Kd is 2.5e-20 M^2.

B2: PzinT 51 bp (dsDNA)
DNA 1: CCCATTTTGCTATATGTTACAATATAACATTACACATCATATACATTAAGG
DNA 2: CCTTAATGTATATGATGTGTAATGTTATATTGTAACATATAGCAAAATGGG
With B2 as the binder, how does the Kd [1] read?
Its Kd is 5.3e-20 M^2.

B3: PpliG 51 bp (dsDNA)
DNA 1: CCATGAGTACGATGAACTGTTATAATATAACAATCCCTAACGGGAGAAGG
DNA 2: CCTTCTCCCGTTAGGGATTGTTATATTATAACAGTTCATCGTACTCATGG
For B3, which Kd [2] is on record?
Its Kd is 28 nM.

And the Kd [3]?
Its Kd is 5.2e-16 M^2.

B4: 31mer2bpOH (dsDNA)
DNA 1: AGAAGTGTGATATTATAACATTTCATGACTATG
DNA 2: TAGTCATGAAATGTTATAATATCACACTTCTCA
Does B4 bind [4]?
Result: binds

B5: Br-31mer2bpOH (dsDNA)
DNA 1: AGAAGTGUGATATTATAACATUTCATGACTATG
DNA 2: TAGTCATGAAATGTTATAATATCACACTTCTCA
modifications: 5-bromo-dU at positions 8 and 22 of strand 1 (dU-Br)
Does B5 bind [5]?
Result: binds

B6: E. coli zinc uptake regulator (Zur), wild type (natural protein)
chain: MEKTTTQELLAQAEKICAQRNVRLTPQRLEVLRLMSLQDGAISAYDLLDLLREAEPQAKPPTVYRALDFLLEQGFVHKVESTNSYVLCHLFDQPTHTSAMFICDRCGAVKEECAEGVEDIMHTLAAKMGFALRHNVIEAHGLCAACVEVEACRHPEQCQHDHSVQVKKKPR
notes: Zinc uptake regulator Zur of Escherichia coli; the crystal model includes residues 5-152 of each of four chains (A-D); Zinc-loaded (two Zn2+ sites per monomer); no tag is named; also called EcZur; WTZur; source: E. coli BL21 (DE3), pET24d-based plasmid, purified (heparin column)
With B6 as the binder, how does the “stoichiometry N” value [6] read?
Its value is 4.

B7: E. coli Zur site B mutant C88S (natural protein)
chain: MEKTTTQELLAQAEKICAQRNVRLTPQRLEVLRLMSLQDGAISAYDLLDLLREAEPQAKPPTVYRALDFLLEQGFVHKVESTNSYVLSHLFDQPTHTSAMFICDRCGAVKEECAEGVEDIMHTLAAKMGFALRHNVIEAHGLCAACVEVEACRHPEQCQHDHSVQVKKKPR
notes: Zinc uptake regulator Zur of Escherichia coli with C88S (zinc site B); also called B-site (C88S) mutant; source: E. coli BL21 (DE3), pET24d-based plasmid, purified (heparin column)
B7 was tested. Which “stoichiometry N” value [7] did it give?
Its value is 2.

B8: PznuABC 51 bp (dsDNA)
DNA 1: CCGAATATGAGAAGTGTGATATTATAACATTTCATGACTACTGCAAGACGG
DNA 2: CCGTCTTGCAGTAGTCATGAAATGTTATAATATCACACTTCTCATATTCGG
How did the Kd [8] turn out when B8 was run?
The Kd was 2.1 nM.

What about the Kd [9] of the same binder?
The Kd was 2.6 nM.

What about the Kd [10] of the same binder?
Its Kd is 8.2e-18 M^2.
